From patent US7465787

Target: biotinylated soluble single-chain Vb8-Va3 TCR (mouse)
Assay: flow cytometry titration of whole yeast cells with biotinylated scTCR, Scatchard analysis; assumes 100% active scTCR

wt scFv-KJ16 displayed on yeast as Aga2p-HA-scFv-KJ16-c-myc fusion (from UniProt P32781 19-87)
Kd: 500 nM
